# Reference: publication PMC6265255
# Molecular target: human FcγRIIA (R131 variant) expressed on Jurkat cells (UniProt P12318)
# Experiment: FLIM
# Conditions: Jurkat cells co-expressing FcγRIIA and Mac-1; donor anti-FcγRIIA IV.3 AF488 + acceptor anti-Mac-1 (CD11b) ICRF44 AF568; n = 3 experiments
# UniProt P12318, sequence (P12318 34-217, change not shown): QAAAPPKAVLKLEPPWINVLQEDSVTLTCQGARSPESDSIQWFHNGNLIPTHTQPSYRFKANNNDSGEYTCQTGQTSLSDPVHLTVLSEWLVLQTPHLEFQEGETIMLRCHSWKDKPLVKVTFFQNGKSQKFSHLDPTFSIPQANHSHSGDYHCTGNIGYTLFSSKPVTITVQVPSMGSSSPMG
substance,measurement,value
"human Mac-1 (CD11b/CD18), wild type, expressed on Jurkat cells (from UniProt P11215;P05107) E253-R261 (… replaced with … of CD11a)",other: FcγRIIA fluorescence lifetime tm (donor + acceptor),1830 ps
